{
  "source": "paper doi:10.1101/2020.10.06.327627",
  "about": "(bioRxiv, 2020)",
  "binders": {"B1": {"name": "SdhB160 (truncated human succinate dehydrogenase B subunit, truncated at K160) (domain or fragment, UniProt P21912 29-160, looked up)", "chain": "AQTAAATAPRIKKFAIYRWDPDKAGDKPHMQTYEVDLNKCGPMVLDALIKIKNEVDSTLTFRRSCREGICGSCAMNINGGNTLACTRRIDTNLNKVSKIYPLPHMYVIKDLVPDLSNFYAQYKSIEPYLKKK"}},
  "molecular_target": "T1, human TRAP1 (mitochondrial Hsp90) (human, UniProt Q12931 60-704)",
  "T1 sequence (looked up)": "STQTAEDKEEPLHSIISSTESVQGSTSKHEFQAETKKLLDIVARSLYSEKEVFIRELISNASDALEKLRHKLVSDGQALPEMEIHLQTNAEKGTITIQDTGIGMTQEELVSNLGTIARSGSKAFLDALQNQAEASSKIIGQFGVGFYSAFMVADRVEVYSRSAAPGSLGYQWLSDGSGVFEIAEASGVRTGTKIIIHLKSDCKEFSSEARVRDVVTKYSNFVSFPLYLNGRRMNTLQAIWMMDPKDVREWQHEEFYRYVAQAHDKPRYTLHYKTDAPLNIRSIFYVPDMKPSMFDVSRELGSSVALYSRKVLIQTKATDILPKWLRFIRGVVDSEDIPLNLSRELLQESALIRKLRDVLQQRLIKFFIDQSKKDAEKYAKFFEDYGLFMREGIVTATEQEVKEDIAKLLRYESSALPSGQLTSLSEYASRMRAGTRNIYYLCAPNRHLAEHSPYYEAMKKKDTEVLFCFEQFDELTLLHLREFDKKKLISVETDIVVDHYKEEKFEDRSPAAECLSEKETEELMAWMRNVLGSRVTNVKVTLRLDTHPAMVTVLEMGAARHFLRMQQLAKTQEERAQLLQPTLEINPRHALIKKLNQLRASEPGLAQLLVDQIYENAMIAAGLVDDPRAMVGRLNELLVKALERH",
  "assay": "cell-based or functional assay",
  "data": [
    {"binder": "B1", "values": [
      {"measurement": "acceleration of TRAP1 ATPase activity, EC50", "result": 6.6, "unit": "µM"},
      {"measurement": "acceleration of TRAP1 dimer closure, inter-protomer FRET assay, EC50", "result": 3.6, "unit": "µM"}
    ]}
  ]
}
